Test results reported in patent publication US20140087995A1 (published 2014).
Numbered stars: 1 amine (or outer) side, 2 acyl side, 3 side chain; on linkers, the order of the positions; unused ones are H or OH. Bridge positions count the residues as written; N and C are the ends. Side chains are listed from the residue outwards. Ends that are not written are not given here. * marks the point of attachment. C20 diacid = O=C(O)CCCCCCCCCCCCCCCCCCC(=O)*; γGlu = O=C(O)[C@H](CCC(=O)[*:2])N[*:1]

T1: human calcitonin receptor (human, UniProt P30988 25-474)
T1 sequence (looked up): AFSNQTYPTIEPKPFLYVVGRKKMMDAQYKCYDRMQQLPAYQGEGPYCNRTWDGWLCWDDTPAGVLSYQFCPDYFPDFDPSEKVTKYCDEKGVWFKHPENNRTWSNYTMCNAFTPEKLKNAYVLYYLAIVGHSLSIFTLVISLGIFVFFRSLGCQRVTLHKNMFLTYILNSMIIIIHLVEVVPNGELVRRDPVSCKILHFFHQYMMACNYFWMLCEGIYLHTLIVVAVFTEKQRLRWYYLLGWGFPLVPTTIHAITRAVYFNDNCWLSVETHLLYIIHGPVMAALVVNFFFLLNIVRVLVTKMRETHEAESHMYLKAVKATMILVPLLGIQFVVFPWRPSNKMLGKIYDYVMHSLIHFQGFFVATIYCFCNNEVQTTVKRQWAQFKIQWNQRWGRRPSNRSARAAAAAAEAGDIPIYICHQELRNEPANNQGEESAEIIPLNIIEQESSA

T2: rat calcitonin receptor (rat, UniProt P32214 25-516)
T2 construct: whole, on cells; Used as membranes prepared from the transfected cells (Assay VIII); also called rCTR; rat calcitonin (a) receptor
T2 sequence (looked up): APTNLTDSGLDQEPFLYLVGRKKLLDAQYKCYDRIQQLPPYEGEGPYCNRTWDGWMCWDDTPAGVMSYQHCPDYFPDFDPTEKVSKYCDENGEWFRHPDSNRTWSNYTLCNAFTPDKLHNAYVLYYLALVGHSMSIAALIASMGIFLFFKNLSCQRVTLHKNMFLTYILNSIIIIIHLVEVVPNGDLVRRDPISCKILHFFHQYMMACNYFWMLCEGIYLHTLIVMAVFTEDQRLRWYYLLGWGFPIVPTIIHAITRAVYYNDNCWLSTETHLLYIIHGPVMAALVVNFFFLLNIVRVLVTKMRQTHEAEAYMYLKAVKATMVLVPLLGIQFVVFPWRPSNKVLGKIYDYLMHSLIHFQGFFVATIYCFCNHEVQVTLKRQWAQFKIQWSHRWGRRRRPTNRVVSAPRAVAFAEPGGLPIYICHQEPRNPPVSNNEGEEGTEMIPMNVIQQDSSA

B1: N^ε1-[(4S)-4-carboxy-4-[[(4S)-4-carboxy-4-(19-carboxynonadecanoylamino)butanoyl]amino]butanoyl]-[Glu14,Arg17,Pro21,Pro27,Pro34,Phe37]-h-amylin (peptide)
peptide: K([γGlu-γGlu-C20 diacid])CNTATCATQRLAEFLRHSSPNFGAIPSSTNVGPNTF-NH2
modifications: disulfide 2-7; N-terminus assumed
SMILES: CC[C@H](C)[C@H](NC(=O)[C@H](C)NC(=O)CNC(=O)[C@H](Cc1ccccc1)NC(=O)[C@H](CC(N)=O)NC(=O)[C@@H]1CCCN1C(=O)[C@H](CO)NC(=O)[C@H](CO)NC(=O)[C@H](Cc1c[nH]cn1)NC(=O)[C@H](CCCNC(=N)N)NC(=O)[C@H](CC(C)C)NC(=O)[C@H](Cc1ccccc1)NC(=O)[C@H](CCC(=O)O)NC(=O)[C@H](C)NC(=O)[C@H](CC(C)C)NC(=O)[C@H](CCCNC(=N)N)NC(=O)[C@H](CCC(N)=O)NC(=O)[C@@H](NC(=O)[C@H](C)NC(=O)[C@@H]1CSSC[C@H](NC(=O)[C@@H](N)CCCCNC(=O)CC[C@H](NC(=O)CC[C@H](NC(=O)CCCCCCCCCCCCCCCCCCC(=O)O)C(=O)O)C(=O)O)C(=O)N[C@@H](CC(N)=O)C(=O)N[C@@H]([C@@H](C)O)C(=O)N[C@@H](C)C(=O)N[C@@H]([C@@H](C)O)C(=O)N1)[C@@H](C)O)C(=O)N1CCC[C@H]1C(=O)N[C@@H](CO)C(=O)N[C@@H](CO)C(=O)N[C@H](C(=O)N[C@@H](CC(N)=O)C(=O)N[C@H](C(=O)NCC(=O)N1CCC[C@H]1C(=O)N[C@@H](CC(N)=O)C(=O)N[C@H](C(=O)N[C@@H](Cc1ccccc1)C(N)=O)[C@@H](C)O)C(C)C)[C@@H](C)O
B2: N^ε1-[(4S)-4-carboxy-4-[[(4S)-4-carboxy-4-(19-carboxynonadecanoylamino)butanoyl]amino]butanoyl]-[His14,Arg17,Pro21,Pro27]-h-amylin (peptide)
peptide: K([γGlu-γGlu-C20 diacid])CNTATCATQRLAHFLRHSSPNFGAIPSSTNVGSNTY-NH2
modifications: disulfide 2-7; N-terminus assumed
SMILES: CC[C@H](C)[C@H](NC(=O)[C@H](C)NC(=O)CNC(=O)[C@H](Cc1ccccc1)NC(=O)[C@H](CC(N)=O)NC(=O)[C@@H]1CCCN1C(=O)[C@H](CO)NC(=O)[C@H](CO)NC(=O)[C@H](Cc1c[nH]cn1)NC(=O)[C@H](CCCNC(=N)N)NC(=O)[C@H](CC(C)C)NC(=O)[C@H](Cc1ccccc1)NC(=O)[C@H](Cc1c[nH]cn1)NC(=O)[C@H](C)NC(=O)[C@H](CC(C)C)NC(=O)[C@H](CCCNC(=N)N)NC(=O)[C@H](CCC(N)=O)NC(=O)[C@@H](NC(=O)[C@H](C)NC(=O)[C@@H]1CSSC[C@H](NC(=O)[C@@H](N)CCCCNC(=O)CC[C@H](NC(=O)CC[C@H](NC(=O)CCCCCCCCCCCCCCCCCCC(=O)O)C(=O)O)C(=O)O)C(=O)N[C@@H](CC(N)=O)C(=O)N[C@@H]([C@@H](C)O)C(=O)N[C@@H](C)C(=O)N[C@@H]([C@@H](C)O)C(=O)N1)[C@@H](C)O)C(=O)N1CCC[C@H]1C(=O)N[C@@H](CO)C(=O)N[C@@H](CO)C(=O)N[C@H](C(=O)N[C@@H](CC(N)=O)C(=O)N[C@H](C(=O)NCC(=O)N[C@@H](CO)C(=O)N[C@@H](CC(N)=O)C(=O)N[C@H](C(=O)N[C@@H](Cc1ccc(O)cc1)C(N)=O)[C@@H](C)O)C(C)C)[C@@H](C)O
notes: also called compound 92
B3: N^ε1-[(4S)-4-carboxy-4-[[(4S)-4-carboxy-4-(19-carboxynonadecanoylamino)butanoyl]amino]butanoyl]-[Ser14,Arg17,Pro21,Pro27,Pro34,Glu35]-h-amylin (peptide)
peptide: K([γGlu-γGlu-C20 diacid])CNTATCATQRLASFLRHSSPNFGAIPSSTNVGPETY-NH2
modifications: disulfide 2-7; N-terminus assumed
SMILES: CC[C@H](C)[C@H](NC(=O)[C@H](C)NC(=O)CNC(=O)[C@H](Cc1ccccc1)NC(=O)[C@H](CC(N)=O)NC(=O)[C@@H]1CCCN1C(=O)[C@H](CO)NC(=O)[C@H](CO)NC(=O)[C@H](Cc1c[nH]cn1)NC(=O)[C@H](CCCNC(=N)N)NC(=O)[C@H](CC(C)C)NC(=O)[C@H](Cc1ccccc1)NC(=O)[C@H](CO)NC(=O)[C@H](C)NC(=O)[C@H](CC(C)C)NC(=O)[C@H](CCCNC(=N)N)NC(=O)[C@H](CCC(N)=O)NC(=O)[C@@H](NC(=O)[C@H](C)NC(=O)[C@@H]1CSSC[C@H](NC(=O)[C@@H](N)CCCCNC(=O)CC[C@H](NC(=O)CC[C@H](NC(=O)CCCCCCCCCCCCCCCCCCC(=O)O)C(=O)O)C(=O)O)C(=O)N[C@@H](CC(N)=O)C(=O)N[C@@H]([C@@H](C)O)C(=O)N[C@@H](C)C(=O)N[C@@H]([C@@H](C)O)C(=O)N1)[C@@H](C)O)C(=O)N1CCC[C@H]1C(=O)N[C@@H](CO)C(=O)N[C@@H](CO)C(=O)N[C@H](C(=O)N[C@@H](CC(N)=O)C(=O)N[C@H](C(=O)NCC(=O)N1CCC[C@H]1C(=O)N[C@@H](CCC(=O)O)C(=O)N[C@H](C(=O)N[C@@H](Cc1ccc(O)cc1)C(N)=O)[C@@H](C)O)C(C)C)[C@@H](C)O
notes: also called compound 120
B4: N^-1-[(4S)-4-carboxy-4-(19-carboxynonadecanoylamino)butanoyl]-Gly[Arg1,His14,Arg17,Pro21,Pro27,His34]-h-amylin (peptide)
peptide: {C20 diacid-γGlu}-GRCNTATCATQRLAHFLRHSSPNFGAIPSSTNVGHNTY-NH2
modifications: disulfide 3-8
SMILES: CC[C@H](C)[C@H](NC(=O)[C@H](C)NC(=O)CNC(=O)[C@H](Cc1ccccc1)NC(=O)[C@H](CC(N)=O)NC(=O)[C@@H]1CCCN1C(=O)[C@H](CO)NC(=O)[C@H](CO)NC(=O)[C@H](Cc1c[nH]cn1)NC(=O)[C@H](CCCNC(=N)N)NC(=O)[C@H](CC(C)C)NC(=O)[C@H](Cc1ccccc1)NC(=O)[C@H](Cc1c[nH]cn1)NC(=O)[C@H](C)NC(=O)[C@H](CC(C)C)NC(=O)[C@H](CCCNC(=N)N)NC(=O)[C@H](CCC(N)=O)NC(=O)[C@@H](NC(=O)[C@H](C)NC(=O)[C@@H]1CSSC[C@H](NC(=O)[C@H](CCCNC(=N)N)NC(=O)CNC(=O)CC[C@H](NC(=O)CCCCCCCCCCCCCCCCCCC(=O)O)C(=O)O)C(=O)N[C@@H](CC(N)=O)C(=O)N[C@@H]([C@@H](C)O)C(=O)N[C@@H](C)C(=O)N[C@@H]([C@@H](C)O)C(=O)N1)[C@@H](C)O)C(=O)N1CCC[C@H]1C(=O)N[C@@H](CO)C(=O)N[C@@H](CO)C(=O)N[C@H](C(=O)N[C@@H](CC(N)=O)C(=O)N[C@H](C(=O)NCC(=O)N[C@@H](Cc1c[nH]cn1)C(=O)N[C@@H](CC(N)=O)C(=O)N[C@H](C(=O)N[C@@H](Cc1ccc(O)cc1)C(N)=O)[C@@H](C)O)C(C)C)[C@@H](C)O
notes: 38 residues; also called compound 100
B5: N^-1-[(4S)-4-carboxy-4-(19-carboxynonadecanoylamino)butanoyl]-Gly[Arg1,Ala14,Arg17,Pro21,Pro27,His34]-h-amylin (peptide)
peptide: {C20 diacid-γGlu}-GRCNTATCATQRLAAFLRHSSPNFGAIPSSTNVGHNTY-NH2
modifications: disulfide 3-8
SMILES: CC[C@H](C)[C@H](NC(=O)[C@H](C)NC(=O)CNC(=O)[C@H](Cc1ccccc1)NC(=O)[C@H](CC(N)=O)NC(=O)[C@@H]1CCCN1C(=O)[C@H](CO)NC(=O)[C@H](CO)NC(=O)[C@H](Cc1c[nH]cn1)NC(=O)[C@H](CCCNC(=N)N)NC(=O)[C@H](CC(C)C)NC(=O)[C@H](Cc1ccccc1)NC(=O)[C@H](C)NC(=O)[C@H](C)NC(=O)[C@H](CC(C)C)NC(=O)[C@H](CCCNC(=N)N)NC(=O)[C@H](CCC(N)=O)NC(=O)[C@@H](NC(=O)[C@H](C)NC(=O)[C@@H]1CSSC[C@H](NC(=O)[C@H](CCCNC(=N)N)NC(=O)CNC(=O)CC[C@H](NC(=O)CCCCCCCCCCCCCCCCCCC(=O)O)C(=O)O)C(=O)N[C@@H](CC(N)=O)C(=O)N[C@@H]([C@@H](C)O)C(=O)N[C@@H](C)C(=O)N[C@@H]([C@@H](C)O)C(=O)N1)[C@@H](C)O)C(=O)N1CCC[C@H]1C(=O)N[C@@H](CO)C(=O)N[C@@H](CO)C(=O)N[C@H](C(=O)N[C@@H](CC(N)=O)C(=O)N[C@H](C(=O)NCC(=O)N[C@@H](Cc1c[nH]cn1)C(=O)N[C@@H](CC(N)=O)C(=O)N[C@H](C(=O)N[C@@H](Cc1ccc(O)cc1)C(N)=O)[C@@H](C)O)C(C)C)[C@@H](C)O
notes: 38 residues

target: T1, human calcitonin receptor; experiment: cell-based or functional assay

hCTR funct. EC50 (pM)	Binder
2140 pM	B1
2380 pM	B2
887 pM	B3
1730 pM	B4
537 pM	B5

target: T2, rat calcitonin receptor; experiment: SPA competition binding, displacement of 125I-calcitonin from membranes of BHK tk'ts 13 cells transfected with rat calcitonin receptor (Assay VIII)

IC50	Binder
30.9 nM	KCNTATCATQRLADFLRHSSPNFGAIPSSTNVGSRTY-NH2 (disulfide 2-7) [[Asp14,Arg17,Pro21,Pro27,Arg35]-h-amylin]
